Target: T1, human c-Met/Fc fusion protein (R&D Systems) (human, UniProt P08581 25-932)
T1 construct: Bought reagent; Coated on the ELISA plate at 2 ug/mL; also called human c-Met/Fc protein; not shown: Fc part of the bought fusion protein; not described
Assay: ELISA, human c-Met/Fc coated at 2 ug/mL, hybridoma culture, anti-mouse IgG-HRP
Protocol: Human c-Met/Fc fusion protein was seeded in an amount of 50 μL (2 μg/mL)/well to microtiter plates and allowed to adhere to the surface of each well. The antibody that remained unbound was removed by washing.
The hybridoma cell culture obtained in Reference Example 1.1.2 was added in an amount of 50 μL to each well of the plates and incubated for 1 hour. The cells remaining unreacted were washed out with a sufficient amount of Tris-buffered saline and Tween 20 (TBST). Goat anti-mouse IgG-horseradish peroxidase (HRP) was added to the plates and incubated for 1 hour at room temperature. The plates were washed with a sufficient amount of TBST, followed by reacting the peroxidase with a substrate (OPD). Absorbance at 450 nm was measured on an ELISA reader.

T1 sequence (P08581 25-932 limits assumed): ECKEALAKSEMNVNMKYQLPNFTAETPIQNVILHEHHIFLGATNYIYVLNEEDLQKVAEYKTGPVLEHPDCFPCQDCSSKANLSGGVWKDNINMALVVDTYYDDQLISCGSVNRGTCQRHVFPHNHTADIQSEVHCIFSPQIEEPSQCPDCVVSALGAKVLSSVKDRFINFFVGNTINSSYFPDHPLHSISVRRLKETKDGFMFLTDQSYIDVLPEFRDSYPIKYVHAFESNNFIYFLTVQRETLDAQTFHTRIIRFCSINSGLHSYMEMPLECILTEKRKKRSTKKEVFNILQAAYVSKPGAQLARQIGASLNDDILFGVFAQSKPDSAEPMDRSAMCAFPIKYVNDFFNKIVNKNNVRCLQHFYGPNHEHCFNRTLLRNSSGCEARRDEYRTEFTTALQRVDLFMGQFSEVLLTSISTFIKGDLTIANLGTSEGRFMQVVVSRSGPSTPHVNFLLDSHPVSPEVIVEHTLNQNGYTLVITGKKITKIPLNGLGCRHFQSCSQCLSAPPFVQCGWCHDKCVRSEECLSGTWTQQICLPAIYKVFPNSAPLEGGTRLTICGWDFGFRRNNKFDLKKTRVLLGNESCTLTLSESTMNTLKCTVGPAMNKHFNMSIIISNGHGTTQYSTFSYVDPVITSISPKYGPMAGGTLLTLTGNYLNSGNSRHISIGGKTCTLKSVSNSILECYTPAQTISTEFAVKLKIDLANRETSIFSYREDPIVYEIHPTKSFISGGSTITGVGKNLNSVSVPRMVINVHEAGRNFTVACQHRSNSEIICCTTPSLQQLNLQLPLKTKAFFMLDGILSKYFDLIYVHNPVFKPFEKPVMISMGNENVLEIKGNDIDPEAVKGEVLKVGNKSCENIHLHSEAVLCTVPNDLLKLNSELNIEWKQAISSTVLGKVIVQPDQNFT

B1: AbF46, mouse monoclonal antibody to c-Met (antibody, V domains shown)
VH: EVKLVESGGGLVQPGGSLRLSCATSGFTFTDYYMSWVRQPPGKALEWLGFIRNKANGYTTEYSASVKGRFTISRDNSQSILYLQMDTLRAEDSATYYCARDNWFAYWGQGTLVTVSA
VL: DILMTQSPSSLTVSAGEKVTMSCKSSQSLLASGNQNNYLAWHQQKPGRSPKMLIIWASTRVSGVPDRFIGSGSGTDFTLTINSVQAEDLAVYYCQQSYSAPLTFGAGTKLELK
notes: Tested as hybridoma culture supernatant in the selection ELISA; also called monoclonal antibody produced by hybridoma KCLRF-BP-00220
binding result: binds
